Measured values published in patent US20210380994A1, “LACTOCOCCUS LACTIS EXPRESSION SYSTEM FOR DELIVERING PROTEINS EFFICACIOUS FOR THE TREATMENT OF EPITHELIAL BARRIER FUNCTION DISORDERS” (Second Genome, Inc., priority 2018, published 2021).
Where two headings read alike, the source gives them in different places.

Legend:
[1] = test system: HCT8 enterocyte and HT29-MTX goblet cell lines; assay: Oris Cell Migration assay (epithelial cell wound healing); type: cell-based, human; conditions: 48 hours; SG-11 1 μg/ml, EGF 30 ng/ml, staurosporine 100 nM; FIG. 2
Excerpt: The 96 well Oris Cell Migration assay containing plugs preventing cell attachment in the center of each well was used according to the manufacturer's instructions (Platypus Technologies. Madison, Wis.).
The migration assay plates were warmed to room temperature prior to use and plugs were removed rom 100% confluence wells prior to cell addition. The HCT8 enterocyte and HT29-MTX goblet cell lines were used at a 9:1 ratio with a total of 5×10^4 total cells added per well (4.5×10^4 HCT8 cells and 0.5×10^4 HT29-MTX cells). Cells were incubated at 37° C.+5% CO2 for 24 hours. Plugs were then removed from all control and sample wells. Control wells included cells treated with the diluent vehicle as the blank, 30 ng/ml epidermal growth factor (EGF) as the positive control, and 100 nM staurosporine as the negative control, all diluted in cRPMI. Sample wells contained SG-11 protein (SEQ ID NO:9) at a concentration of 1 μg/ml diluted in eRPMI. 100% and 0% wells were cultured in cRPMI. […] The green fluorescent viability dye Calcenin AM was added to all wells at a concentration of 0.5 μg/min PBS containing 0.9 mM CaCl2 and 0.5 mM MgCl2, incubated for 30 min at 37° C.+5% CO2, the dye was removed and cells were washed in PBS containing 0.9 mM CaCl2 and 0.5 mM MgCl2, and fluorescence was measured. […] Samples were normalized between 100% and 0% samples and values expressed as a percent growth.

[2] = post-translational modification (PTM) analysis by LC/MS/MS peptide mapping; type: physicochemical; conditions: non-stress
Method: Studies were performed to identify residues of SG-11 particularly susceptible to PTMs using LC/MS/MS. The analysis was performed by LakePharma (Belmont, Calif.) to 1) confirm the amino acid sequence of SG11 (SEQ ID NO-9), and 2) determine any post-translational modification which could lead to reduced biological activity and immunogenicity, particularly deamidation and oxidation.
For peptide mapping and PTM analysis, samples were treated with DTT and IAA, followed by trypsin digestion. The digested sample was then analyzed by Waters ACQUITY UPLC coupled to Xevo G2-XS QTOF mass spectrometer using a Protein BEH C18 column.

[3] = for Carbamidomethy C147, VDGEICYVSCQNVK (SEQ ID NO: 18) / Carbamidomethy C151, VDGEICYVSCQNVK (SEQ ID NO: 18): artificial carbamidomethylation by iodoacetamide
[4] = normalized to corresponding precursor
[5] = normalized to total peptide ion intensity

B1: SG-11: Roseburia hominis protein comprising SEQ ID NO:3; tested as SEQ ID NO:5, SEQ ID NO:7 or FLAG-tagged SEQ ID NO:9 (protein, listed as Rosburia hominis)
chain: LEGEESVVYVGKKGVIASLDVETLDQSYYDETELKSYVDAEVEDYTAEHGKNAVKVESLKVEDGVAKLKMKYKTPEDYTAFNGIELYQGKVVASLAAGYVYDGEFARVEEGKVVGAATKQDIYSEDDLKVAIIRANTDVKVDGEICYVSCQNVKLTGKDSVSIRDGYYLETGSVTASVDVTGQESVGTEQLSGTEQMEMTGEPVNADDTEQTEAAAGDGSFETDVYTFIVYK
[1]
  percent growth (epithelial cell wound healing): significant increase in growth
[2]; [4]
  Deamidation N83 (peptide TPEDYTAFNGIELYQGK), % peptide: 3.77%
  Deamidation N137 (peptide ANTDVK), % peptide: 1.03%
  Deamidation N153 (peptide VDGEICYVSCQNVK), % peptide: 0.2%
[2]; normalized to total intensity of corresponding precursor with or without modification
  Deamidation N53 (peptide NAVK), % peptide: 7.84%
[2]; [5]
  Deamidation N53 (peptide NAVK), % total ion: 0.01%
  Deamidation N83 (peptide TPEDYTAFNGIELYQGK), % total ion: 0.25%
  Deamidation N137 (peptide ANTDVK), % total ion: 0.25%
  Deamidation N153 (peptide VDGEICYVSCQNVK), % total ion: 0.01%
  Oxidation M1 (peptide MLEGEESVVYVGK), % total ion: <0.01%
[3]; 4° C., 2 weeks, 1 mg/ml
  aggregates (SEC-HPLC): low level of aggregates
[3]; 37° C., 2 weeks, 1 mg/ml
  aggregation (SEC-HPLC): major aggregation occurred
[3]; 40° C. for two weeks
  Deamdation N206, GYYLETGSV...TFIVYK (SEQ ID NO: 29): 3.62%
  Deamidation N83, TPEDYTAFNGIELYQGX (SEQ ID NO: 26): 99.88%
  Deamidation N83 Deamidation Q89, TPEDYTAFNGIELYQGX (SEQ ID NO: 26): 0.12%
  Deamidation N137, ANTDVK (SEQ ID NO: 27): 14.61%
  Deamidation N153, VDGEICYVSCQNVK (SEQ ID NO: 18): 0%
  Deamidation Q30, GVIASLDVETLDQSYYDETELK (SEQ ID NO: 25): 0.09%
  Deamidation Q152 Deamidation N153 Carbamidomethy C151, VDGEICYVSCQNVK (SEQ ID NO: 18): 3.1%
  No modification, ANTDVK (SEQ ID NO: 27): 85.39%
  No modification, GVIASLDVETLDQSYYDETELK (SEQ ID NO: 25): 99.91%
  No modification, GYYLETGSVTASVDVTGQESVGTEQLSGTEQMEMTGEPVNADDTEQTEAAAGDGSFETDVYTFIVYK (SEQ ID NO: 29): 96.38%
  No modification, MLEGEESVVYVGK (SEQ ID NO: 24): 99.82%
  No modification, TPEDYTAFNGIELYQGX (SEQ ID NO: 26): 0%
  No modification, VDGEICYVSCQNVK (SEQ ID NO: 18): 44.85%
  Oxidation M2.00, GYYLETGSV...TFIVYK (SEQ ID NO: 29): 0%
  Oxidation M198, GYYLETGSV...TFIVYK (SEQ ID NO: 29): 0%
  Oxidation of M, MLEGEESVVYVGK (SEQ ID NO: 24): 0.18%
  Carbamidomethy C147, VDGEICYVSCQNVK (SEQ ID NO: 18): 33.59%
  Carbamidomethy C151, VDGEICYVSCQNVK (SEQ ID NO: 18): 18.45%
[3]; Freeze and thaw (6 cycles) −80° C. to room temperature
  Observation of solution: clear
[3]; Mechanical stress: 350 rpm shake, 4° C., 24 hr
  Observation of solution: clear
[3]; No treatment
  Deamdation N206, GYYLETGSV...TFIVYK (SEQ ID NO: 29): 0%
  Deamidation N53, NAVK (SEQ ID NO 30): 7.84%
  Deamidation N83, TPEDYTAFNGIELYQGX (SEQ ID NO: 26): 17.43%
  Deamidation N83 Deamidation Q89, TPEDYTAFNGIELYQGX (SEQ ID NO: 26): 0%
  Deamidation N137, ANTDVK (SEQ ID NO: 27): 1.04%
  Deamidation N153, VDGEICYVSCQNVK (SEQ ID NO: 18): 0.02%
  Deamidation Q30, GVIASLDVETLDQSYYDETELK (SEQ ID NO: 25): 0%
  Deamidation Q152 Deamidation N153 Carbamidomethy C151, VDGEICYVSCQNVK (SEQ ID NO: 18): 0%
  No modification, ANTDVK (SEQ ID NO: 27): 98.96%
  No modification, GVIASLDVETLDQSYYDETELK (SEQ ID NO: 25): 100%
  No modification, GYYLETGSV...TFIVYK (SEQ ID NO: 29): 100%
  No modification, MLEGEESVVYVGK (SEQ ID NO: 24): 99.78%
  No modification, TPEDYTAFNGIELYQGX (SEQ ID NO: 26): 82.57%
  No modification, VDGEICYVSCQNVK (SEQ ID NO: 18): 99.98%
  Oxidation M2.00, GYYLETGSV...TFIVYK (SEQ ID NO: 29): 0%
  Oxidation M198, GYYLETGSV...TFIVYK (SEQ ID NO: 29): 0%
  Oxidation of M, MLEGEESVVYVGK (SEQ ID NO: 24): 0.22%
[3]; Oxidation (H2O2)
  Deamdation N206, GYYLETGSV...TFIVYK (SEQ ID NO: 29): 0%
  Deamidation N83, TPEDYTAFNGIELYQGX (SEQ ID NO: 26): 37%
  Deamidation N83 Deamidation Q89, TPEDYTAFNGIELYQGX (SEQ ID NO: 26): 0%
  Deamidation N137, ANTDVK (SEQ ID NO: 27): 16.44%
  Deamidation N153, VDGEICYVSCQNVK (SEQ ID NO: 18): 0%
  Deamidation Q30, GVIASLDVETLDQSYYDETELK (SEQ ID NO: 25): 0.07%
  Deamidation Q152 Deamidation N153 Carbamidomethy C151, VDGEICYVSCQNVK (SEQ ID NO: 18): 0.31%
  No modification, ANTDVK (SEQ ID NO: 27): 83.56%
  No modification, GVIASLDVETLDQSYYDETELK (SEQ ID NO: 25): 99.93%
  No modification, GYYLETGSV...TFIVYK (SEQ ID NO: 29): 19.17%
  No modification, MLEGEESVVYVGK (SEQ ID NO: 24): 99.88%
  No modification, TPEDYTAFNGIELYQGX (SEQ ID NO: 26): 63%
  No modification, VDGEICYVSCQNVK (SEQ ID NO: 18): 63.23%
  Oxidation M2.00, GYYLETGSV...TFIVYK (SEQ ID NO: 29): 63.9%
  Oxidation M198, GYYLETGSV...TFIVYK (SEQ ID NO: 29): 16.92%
  Oxidation of M, MLEGEESVVYVGK (SEQ ID NO: 24): 0.12%
  Carbamidomethy C147, VDGEICYVSCQNVK (SEQ ID NO: 18): 34.52%
  Carbamidomethy C151, VDGEICYVSCQNVK (SEQ ID NO: 18): 1.93%
[3]; Oxidation: Hydroperoxide (0.005%) 40° C., 16 hr
  Observation of solution: clear
[3]; Temperature (2 weeks) 4° C.
  Observation of solution: clear
[3]; Temperature (2 weeks) 25° C.
  Observation of solution: clear
[3]; Temperature (2 weeks) 37° C.
  Observation of solution: clear
[3]; Temperature (2 weeks) 40° C.
  Observation of solution: clear
[3]; pH 4 and pH 9
  Observation of solution: clear
[3]; pH 9
  Deamdation N206, GYYLETGSV...TFIVYK (SEQ ID NO: 29): 11.84%
  Deamidation N83, TPEDYTAFNGIELYQGX (SEQ ID NO: 26): 19.1%
  Deamidation N83 Deamidation Q89, TPEDYTAFNGIELYQGX (SEQ ID NO: 26): 0%
  Deamidation N137, ANTDVK (SEQ ID NO: 27): 23.95%
  Deamidation N153, VDGEICYVSCQNVK (SEQ ID NO: 18): 0.35%
  Deamidation Q30, GVIASLDVETLDQSYYDETELK (SEQ ID NO: 25): 0.05%
  Deamidation Q152 Deamidation N153 Carbamidomethy C151, VDGEICYVSCQNVK (SEQ ID NO: 18): 28%
  No modification, ANTDVK (SEQ ID NO: 27): 76.05%
  No modification, GVIASLDVETLDQSYYDETELK (SEQ ID NO: 25): 99.95%
  No modification, GYYLETGSV...TFIVYK (SEQ ID NO: 29): 88.16%
  No modification, MLEGEESVVYVGK (SEQ ID NO: 24): 99.94%
  No modification, TPEDYTAFNGIELYQGX (SEQ ID NO: 26): 80.9%
  No modification, VDGEICYVSCQNVK (SEQ ID NO: 18): 8.76%
  Oxidation M2.00, GYYLETGSV...TFIVYK (SEQ ID NO: 29): 0%
  Oxidation M198, GYYLETGSV...TFIVYK (SEQ ID NO: 29): 0%
  Oxidation of M, MLEGEESVVYVGK (SEQ ID NO: 24): 0.61%
  Carbamidomethy C147, VDGEICYVSCQNVK (SEQ ID NO: 18): 71.71%
  Carbamidomethy C151, VDGEICYVSCQNVK (SEQ ID NO: 18): 12.45%
